Reference: article PMC6702328, “A VDAC1-Derived N-Terminal Peptide Inhibits Mutant SOD1-VDAC1 Interactions and Toxicity in the SOD1 Model of ALS” (Frontiers in Cellular Neuroscience, 2019)

What was measured:
[1] = biological target: recombinant full-length murine VDAC1 (murine) (UniProt Q60932)
[2] = biological target: recombinant full-length murine VDAC1 (murine) (UniProt Q60932); remark: listed apart in the source

recombinant full-length murine VDAC1 (murine), sequence (Q60932 14-296): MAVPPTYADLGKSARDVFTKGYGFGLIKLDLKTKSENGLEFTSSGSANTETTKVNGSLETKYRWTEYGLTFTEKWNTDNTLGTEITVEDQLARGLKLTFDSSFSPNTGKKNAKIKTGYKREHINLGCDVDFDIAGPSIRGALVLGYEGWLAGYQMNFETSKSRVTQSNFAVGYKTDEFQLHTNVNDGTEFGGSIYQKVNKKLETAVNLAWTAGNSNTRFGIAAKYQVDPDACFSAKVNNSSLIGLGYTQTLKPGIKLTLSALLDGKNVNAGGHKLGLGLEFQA

inhibition of channel conductance of bilayer-reconstituted VDAC1 [1] [%] | Substance | survival of mESC-derived SOD1^G93A-expressing motor neurons with the (1-20)-N-Ter-Antp peptide, 10 μM, 96 h [2] [fold]
40 | human mutant SOD1^G85R (enzyme) | 
57 | human mutant SOD1^G93A (enzyme) | 2
